Test results reported in patent US12365732 (23ANDME, dated 2025).

T1: hu-CD96 (soluble, isoform 2 extracellular domain) (human, UniProt P40200 22-516, biotinylated in Octet and blocking ELISA)
T1 construct: the assays name only hu-CD96; also called hCD96; biotinylated hu-CD96
T1 sequence: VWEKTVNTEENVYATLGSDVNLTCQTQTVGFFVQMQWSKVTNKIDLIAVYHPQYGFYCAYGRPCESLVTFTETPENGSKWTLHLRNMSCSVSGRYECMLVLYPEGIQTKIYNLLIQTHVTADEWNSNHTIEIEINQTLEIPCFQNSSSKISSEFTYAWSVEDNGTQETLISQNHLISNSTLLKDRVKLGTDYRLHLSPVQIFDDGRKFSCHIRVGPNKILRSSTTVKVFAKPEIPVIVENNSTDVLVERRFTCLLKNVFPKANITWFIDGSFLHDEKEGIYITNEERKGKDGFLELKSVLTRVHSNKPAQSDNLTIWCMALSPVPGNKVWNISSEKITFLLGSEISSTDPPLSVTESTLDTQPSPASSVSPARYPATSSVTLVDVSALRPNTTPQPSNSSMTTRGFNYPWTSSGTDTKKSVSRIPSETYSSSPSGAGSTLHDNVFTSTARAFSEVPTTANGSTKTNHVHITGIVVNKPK

T2: cy-CD96 (soluble, extracellular domain) (cynomolgus monkey, UniProt P40200 22-516 (human entry), biotinylated in Octet and blocking ELISA)
T2 construct: the assays name only cy-CD96; also called biotinylated cy-CD96
T2 chain: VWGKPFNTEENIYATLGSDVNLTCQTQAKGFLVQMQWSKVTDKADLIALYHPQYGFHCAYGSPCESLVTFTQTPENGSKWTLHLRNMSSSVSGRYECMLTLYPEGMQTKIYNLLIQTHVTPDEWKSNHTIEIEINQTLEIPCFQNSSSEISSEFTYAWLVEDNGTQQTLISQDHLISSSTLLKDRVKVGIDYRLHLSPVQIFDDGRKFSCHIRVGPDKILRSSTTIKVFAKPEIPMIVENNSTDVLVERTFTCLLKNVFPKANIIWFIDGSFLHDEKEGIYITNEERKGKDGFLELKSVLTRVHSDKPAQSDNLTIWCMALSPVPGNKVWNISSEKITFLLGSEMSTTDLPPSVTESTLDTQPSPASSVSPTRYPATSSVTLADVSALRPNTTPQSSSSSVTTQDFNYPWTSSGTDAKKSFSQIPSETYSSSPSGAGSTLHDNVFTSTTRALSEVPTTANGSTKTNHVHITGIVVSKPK


Legend:
[1] = target: T1, hu-CD96 (soluble, isoform 2 …); test: BLI (Octet), biotin-CD96 on SA, Fab analyte
Procedure: (§1) The binding affinity of the generated Fab variants of mAb1.v7 for hu-CD96 and cy-CD96 was determined by OCTET (Pall ForteBio) Bio-Layer Interferometry (BLI) binding analysis. The biotinylated hu-CD96 or biotinylated cy-CD96 was diluted to a final concentration 10 µg/mL in experimental buffer (PBS buffer with 0.01% Tween-20) and immobilized on the Streptavidin Capture (SA) biosensors (Pall ForteBio). Three-fold serial dilutions of the mAb1.v7 Fab variants starting at 1 µM as analytes were diluted in the experimental buffer (PBS buffer with 0.01% Tween-20). The biosensors were equilibrated in experimental buffer at 30° C. for ten minutes prior to starting the experiment. The kinetics experiment was performed with the following steps, where the step name, solution and time are listed: Baseline (buffer—60 seconds), Loading (biotinylated antigen—200 seconds), Baseline 2 (buffer—minimum 120 seconds), Association (analyte—200-300 seconds) and Dissociation (buffer—1000 seconds). The resulting BLI signal from analyte association and dissociation from the […] was analyzed using the Octet Data Analysis software (Pall ForteBio). First a reference subtraction was performed on all recorded traces using the reference well (biosensor that underwent same steps as experimental wells but no analyte for the Association step) and then all the traces were aligned to the beginning of the Association step. The entirety of the Association and Dissociation steps were used in a Global fit (minimum of four analyte concentration traces) in a 1:1 binding model to calculate the K_D values for the 16 selected individual mAb1.v7 Fab variants as summarized in Table 9 (below).

[2] = target: T2, cy-CD96 (soluble, extracellular domain); test: BLI (Octet), biotin-CD96 on SA, Fab analyte
Procedure: as §1

[3] = target: T1, hu-CD96 (soluble, isoform 2 …); test: phage competition ELISA, soluble CD96 vs coated hu-CD96
Procedure: (§2) 192 colonies from most stringent selections (biotinylated 0.1 nM of hu-CD96 or cy-CD96 with 1000× non-biotinylated human or cy-CD96) were grown in 400 µL 2YT with 4 µL helper phage M13KO7 overnight at 37° C. with shaking. After spinning down the pellet, the phage supernatant was diluted 1:1 with 2 nM hu-CD96, 20 nM cy-CD96 and ELISA buffer (0.5% BSA and 0.05% TWEEN®20 in PBS) in total […] and incubated for two hours at room temperature with agitation. The […] of mixture was transferred to hu-CD96 coated plate for 15 min to capture unbound phage. The plate was washed with wash buffer (0.05% TWEEN®20 in PBS), and HRP-conjugated anti-M13 antibody (Sino biological, Cat #11973-MM05-H-50) was added in ELISA buffer for 30 min. […] Enzymatic color development was stopped using TMB stop solution (VWR, Cat #95059-200). Plates were analyzed with a SpectraMax i3X plate reader (Molecular Devices). The % inhibition was calculated by the $OD450$ of wells with hu-CD96/cy-CD96 competitor divided by $OD450$ of wells with buffer alone. The lower % inhibition indicated higher phage $IC50$ against hu-CD96 or cy-CD96.
(§3) Selected top inhibition % phage variants from single spot competition were purified from culture supernatants. The optimal phage concentration was incubated with serially-diluted hu-CD96 or cy-CD96 in ELISA buffer in NUNC F plate for two hours. The […] of the mixture was transferred to hu-CD96 coated wells for 15 min to capture unbound phage. The plate was washed with wash buffer (0.05% TWEEN®20 in PBS), and HRP-conjugated anti-M13 antibody (Sino biological, Cat #11973-MM05-H-50) was added in ELISA buffer for 30 min. The plates were washed and developed as described above. The absorbance at 450 nm was plotted as a function of antigen concentration in solution to determine phage $IC50$.

[4] = target: T2, cy-CD96 (soluble, extracellular domain); test: as above
Procedure: as §2, §3

| Binder | Kd [1] [nM] | Kd [2] [nM] | IC50 [3] [nM] | IC50 [4] [nM] |
| --- | --- | --- | --- | --- |
| mAb1.v7.6 Fab (Fab, V domains shown, also called N32R/P52aV/T97L) VH: EVQLVQSGAEVKKPGASVKVSCKASGFTFTNRWMHWVRQAPGQGLEWIGMIHVNSGITNINEKFKNRVTMTTDTSTSTAYMELRSLRSEDTAVYYCRSDGLYEGYFDYWGQGTLVTVSS VL: DIQLTQSPSSLSASVGDRVTITCKASQNVGTAIVWYQQKPGKAPKVLIYSASTRYTGVPSRFSGSGSGTDFTLTISSLQPEDFATYYCQQYSSSPLTFGQGTKVEIK | 28.4 | 284 | 0.16 | 0.15 |
| mAb1.v7.10 Fab (Fab, V domains shown, also called M34R/N53L/T97V) VH: EVQLVQSGAEVKKPGASVKVSCKASGFTFTNNWRHWVRQAPGQGLEWIGMIHPLSGITNINEKFKNRVTMTTDTSTSTAYMELRSLRSEDTAVYYCRSDGVYEGYFDYWGQGTLVTVSS VL: DIQLTQSPSSLSASVGDRVTITCKASQNVGTAIVWYQQKPGKAPKVLIYSASTRYTGVPSRFSGSGSGTDFTLTISSLQPEDFATYYCQQYSSSPLTFGQGTKVEIK | 2.71 | 117 | 0.19 | 0.76 |
| mAb1.v7.14 Fab (Fab, V domains shown, also called T30V/I59T/T97I) VH: EVQLVQSGAEVKKPGASVKVSCKASGFTFVNNWMHWVRQAPGQGLEWIGMIHPNSGITNTNEKFKNRVTMTTDTSTSTAYMELRSLRSEDTAVYYCRSDGIYEGYFDYWGQGTLVTVSS VL: DIQLTQSPSSLSASVGDRVTITCKASQNVGTAIVWYQQKPGKAPKVLIYSASTRYTGVPSRFSGSGSGTDFTLTISSLQPEDFATYYCQQYSSSPLTFGQGTKVEIK | ~0.1 | 530 | 0.1 | 1 |
| mAb1.v7.8 Fab (Fab, V domains shown, also called M34D/N53L/T97V) VH: EVQLVQSGAEVKKPGASVKVSCKASGFTFTNNWDHWVRQAPGQGLEWIGMIHPLSGITNINEKFKNRVTMTTDTSTSTAYMELRSLRSEDTAVYYCRSDGVYEGYFDYWGQGTLVTVSS VL: DIQLTQSPSSLSASVGDRVTITCKASQNVGTAIVWYQQKPGKAPKVLIYSASTRYTGVPSRFSGSGSGTDFTLTISSLQPEDFATYYCQQYSSSPLTFGQGTKVEIK | 27 | 104 | 0.17 | 0.45 |
| mAb1.v7.11 Fab (Fab, V domains shown, Fab with 8xHis tag) VH: EVQLVQSGAEVKKPGASVKVSCKASGFTFTNNFMHWVRQAPGQGLEWIGMIHPNSGGTNINEKFKNRVTMTTDTSTSTAYMELRSLRSEDTAVYYCRSDETYEGYFDYWGQGTLVTVSS VL: DIQLTQSPSSLSASVGDRVTITCKASQNVGTAIVWYQQKPGKAPKVLIYSASTRYTGVPSRFSGSGSGTDFTLTISSLQPEDFATYYCQQYSSSPLTFGQGTKVEIK | 156 | 175 | 0.23 | 0.24 |

Second part, the binder after the results:

| Kd [1] [nM] | Kd [2] [nM] | IC50 [3] [nM] | IC50 [4] [nM] | Binder |
| --- | --- | --- | --- | --- |
| 0.63 | 261 | 0.23 | 0.84 | mAb1.v7.19 Fab (Fab, V domains shown, also called N32S/I59R/T97I) VH: EVQLVQSGAEVKKPGASVKVSCKASGFTFTNSWMHWVRQAPGQGLEWIGMIHPNSGITNRNEKFKNRVTMTTDTSTSTAYMELRSLRSEDTAVYYCRSDGIYEGYFDYWGQGTLVTVSS VL: DIQLTQSPSSLSASVGDRVTITCKASQNVGTAIVWYQQKPGKAPKVLIYSASTRYTGVPSRFSGSGSGTDFTLTISSLQPEDFATYYCQQYSSSPLTFGQGTKVEIK |
| 3 | 160 | 0.19 | 1.85 | mAb1.v7.15 Fab (Fab, V domains shown, also called M34D/N53M/T97F) VH: EVQLVQSGAEVKKPGASVKVSCKASGFTFTNNWDHWVRQAPGQGLEWIGMIHPMSGITNINEKFKNRVTMTTDTSTSTAYMELRSLRSEDTAVYYCRSDGFYEGYFDYWGQGTLVTVSS VL: DIQLTQSPSSLSASVGDRVTITCKASQNVGTAIVWYQQKPGKAPKVLIYSASTRYTGVPSRFSGSGSGTDFTLTISSLQPEDFATYYCQQYSSSPLTFGQGTKVEIK |
| 4.16 | 183 | 0.1 | 0.9 | mAb1.v7.50 Fab (Fab, V domains shown, also called M34S/P52aR/T97V) VH: EVQLVQSGAEVKKPGASVKVSCKASGFTFTNNWSHWVRQAPGQGLEWIGMIHRNSGITNINEKFKNRVTMTTDTSTSTAYMELRSLRSEDTAVYYCRSDGVYEGYFDYWGQGTLVTVSS VL: DIQLTQSPSSLSASVGDRVTITCKASQNVGTAIVWYQQKPGKAPKVLIYSASTRYTGVPSRFSGSGSGTDFTLTISSLQPEDFATYYCQQYSSSPLTFGQGTKVEIK |
| 0.31 | 118 | 0.2 | 0.6 | mAb1.v7.24 Fab (Fab, V domains shown, also called M34G/P52aR/T97) VH: EVQLVQSGAEVKKPGASVKVSCKASGFTFTNNWGHWVRQAPGQGLEWIGMIHRNSGITNINEKFKNRVTMTTDTSTSTAYMELRSLRSEDTAVYYCRSDGIYEGYFDYWGQGTLVTVSS VL: DIQLTQSPSSLSASVGDRVTITCKASQNVGTAIVWYQQKPGKAPKVLIYSASTRYTGVPSRFSGSGSGTDFTLTISSLQPEDFATYYCQQYSSSPLTFGQGTKVEIK |
| 0.31 | 118 | 0.15 | 0.91 | mAb1.v7.21 Fab (Fab, V domains shown, also called N32Y/I59M/T97V) VH: EVQLVQSGAEVKKPGASVKVSCKASGFTFTNYWMHWVRQAPGQGLEWIGMIHPNSGITNMNEKFKNRVTMTTDTSTSTAYMELRSLRSEDTAVYYCRSDGVYEGYFDYWGQGTLVTVSS VL: DIQLTQSPSSLSASVGDRVTITCKASQNVGTAIVWYQQKPGKAPKVLIYSASTRYTGVPSRFSGSGSGTDFTLTISSLQPEDFATYYCQQYSSSPLTFGQGTKVEIK |
